Assay results reported in IntAct's records for PubMed 31515488.

B1: Nuclear RNA export factor 3 (Homo sapiens), Q9H4D5 (parent)
chain: MSLPSGHTTGHTDQVVQRRARCWDIYQRRFSSRSEPVNPGMHSSSHQQQDGDAAMHGAHMDSPVRYTPYTISPYNRKGSFRKQDQTHVNMEREQKPPERRMEGNMPDGTLGSWFKITVPFGIKYNEKWLLNLIQNECSVPFVPVEFHYENMHASFFVENASIAYALKNVSGKIWDEDNEKISIFVNPAGIPHFVHRELKSEKVEQIKLAMNQQCDVSQEALDIQRLPFYPDMVNRDTKMASNPRKCMAASLDVHEENIPTVMSAGEMDKWKGIEPGEKCADRSPVCTTFSDTSSNINSILELFPKLLCLDGQQSPRATLCGTEAHKRLPTCKGSFFGSEMLKNLVLQFLQQYYLIYDSGDRQGLLSAYHDEACFSLSIPFNPEDSAPSSFCKFFKDSRNIKILKDPYLRGELLKHTKLDIVDSLSALPKTQHDLSSFLVDMWYQTEWMLCFSVNGVFKEVEGQSQGSVLAFTRTFIATPGSSSSLCIVNDKLFVRDTSHQGTQSALFTLVPTAFSSSVPAFSQEQQKMLPS
partner: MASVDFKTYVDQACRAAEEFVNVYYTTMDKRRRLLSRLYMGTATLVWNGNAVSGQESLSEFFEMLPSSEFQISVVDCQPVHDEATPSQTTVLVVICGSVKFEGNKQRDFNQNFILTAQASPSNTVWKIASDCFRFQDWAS
B2: Sodium channel modifier 1 (Homo sapiens), Q9BWG6 (parent)
chain: MSFKREGDDWSQLNVLKKRRVGDLLASYIPEDEALMLRDGRFACAICPHRPVLDTLAMLTAHRAGKKHLSSLQLFYGKKQPGKERKQNPKHQNELRREETKAEAPLLTQTRLITQSALHRAPHYNSCCRRKYRPEAPGPSVSLSPMPPSEVKLQSGKISREPEPAAGPQAEESATVSAPAPMSPTRRRALDHYLTLRSSGWIPDGRGRWVKDENVEFDSDEEEPPDLPLD
partner: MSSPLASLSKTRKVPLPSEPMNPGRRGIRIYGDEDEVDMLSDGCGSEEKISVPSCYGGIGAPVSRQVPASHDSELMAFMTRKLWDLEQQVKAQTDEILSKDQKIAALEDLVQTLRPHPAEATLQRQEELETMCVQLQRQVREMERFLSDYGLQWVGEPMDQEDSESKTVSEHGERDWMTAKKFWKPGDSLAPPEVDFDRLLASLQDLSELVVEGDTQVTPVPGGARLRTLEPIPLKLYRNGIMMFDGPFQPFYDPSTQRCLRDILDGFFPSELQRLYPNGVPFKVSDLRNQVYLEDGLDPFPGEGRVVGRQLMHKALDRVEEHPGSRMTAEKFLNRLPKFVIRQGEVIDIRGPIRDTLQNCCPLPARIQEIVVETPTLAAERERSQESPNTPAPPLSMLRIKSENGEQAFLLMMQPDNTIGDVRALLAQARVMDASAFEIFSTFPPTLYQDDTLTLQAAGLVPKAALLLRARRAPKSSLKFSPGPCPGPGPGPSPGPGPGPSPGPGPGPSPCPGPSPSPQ
B3: Scaffold protein ILK (Homo sapiens), Q13418 (parent)
chain: MDDIFTQCREGNAVAVRLWLDNTENDLNQGDDHGFSPLHWACREGRSAVVEMLIMRGARINVMNRGDDTPLHLAASHGHRDIVQKLLQYKADINAVNEHGNVPLHYACFWGQDQVAEDLVANGALVSICNKYGEMPVDKAKAPLRELLRERAEKMGQNLNRIPYKDTFWKGTTRTRPRNGTLNKHSGIDFKQLNFLTKLNENHSGELWKGRWQGNDIVVKVLKVRDWSTRKSRDFNEECPRLRIFSHPNVLPVLGACQSPPAPHPTLITHWMPYGSLYNVLHEGTNFVVDQSQAVKFALDMARGMAFLHTLEPLIPRHALNSRSVMIDEDMTARISMADVKFSFQCPGRMYAPAWVAPEALQKKPEDTNRRSADMWSFAVLLWELVTREVPFADLSNMEIGMKVALEGLRPTIPPGISPHVCKLMKICMNEDPAKRPKFDMIVPILEKMQDK
partner: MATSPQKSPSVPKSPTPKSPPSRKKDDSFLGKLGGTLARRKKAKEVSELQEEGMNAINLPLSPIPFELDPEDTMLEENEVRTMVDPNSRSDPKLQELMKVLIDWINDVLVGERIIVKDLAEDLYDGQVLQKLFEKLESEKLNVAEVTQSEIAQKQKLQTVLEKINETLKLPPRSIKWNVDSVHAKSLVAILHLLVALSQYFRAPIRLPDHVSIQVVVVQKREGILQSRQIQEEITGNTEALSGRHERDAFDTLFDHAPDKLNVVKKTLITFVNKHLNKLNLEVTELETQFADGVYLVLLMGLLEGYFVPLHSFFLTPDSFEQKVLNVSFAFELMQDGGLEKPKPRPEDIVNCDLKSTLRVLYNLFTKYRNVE
B4: Peroxisomal bifunctional enzyme (Homo sapiens), Q08426 (parent)
chain: MAEYTRLHNALALIRLRNPPVNAISTTLLRDIKEGLQKAVIDHTIKAIVICGAEGKFSAGADIRGFSAPRTFGLTLGHVVDEIQRNEKPVVAAIQGMAFGGGLELALGCHYRIAHAEAQVGLPEVTLGLLPGARGTQLLPRLTGVPAALDLITSGRRILADEALKLGILDKVVNSDPVEEAIRFAQRVSDQPLESRRLCNKPIQSLPNMDSIFSEALLKMRRQHPGCLAQEACVRAVQAAVQYPYEVGIKKEEELFLYLLQSGQARALQYAFFAERKANKWSTPSGASWKTASARPVSSVGVVGLGTMGRGIVISFARARIPVIAVDSDKNQLATANKMITSVLEKEASKMQQSGHPWSGPKPRLTSSVKELGGVDLVIEAVFEEMSLKKQVFAELSAVCKPEAFLCTNTSALDVDEIASSTDRPHLVIGTHFFSPAHVMKLLEVIPSQYSSPTTIATVMNLSKKIKKIGVVVGNCFGFVGNRMLNPYYNQAYFLLEEGSKPEEVDQVLEEFGFKMGPFRVSDLAGLDVGWKSRKGQGLTGPTLLPGTPARKRGNRRYCPIPDVLCELGRFGQKTGKGWYQYDKPLGRIHKPDPWLSKFLSRYRKTHHIEPRTISQDEILERCLYSLINEAFRILGEGIAASPEHIDVVYLHGYGWPRHKGGPMFYASTVGLPTVLEKLQKYYRQNPDIPQLEPSDYLKKLASQGNPPLKEWQSLAGSPSSKL

Variants of: B1
Conditions: with nxt1_human NXT1, Q9UKK6

| Variant | effect of a mutation on the interaction |
| --- | --- |
| R409W | disrupting interaction strength |

Variants of: B1
Conditions: with nxt1_human NXT1, Q9UKK6
Remark: another data set of the same source

| Variant | effect of a mutation on the interaction |
| --- | --- |
| T9K | with no effect |

Variants of: B2
Conditions: with ubx11_human UBXN11, Q5T124

| Variant | effect of a mutation on the interaction |
| --- | --- |
| A174V | with no effect |

Variants of: B3
Conditions: with parva_human PARVA

| Variant | effect of a mutation on the interaction |
| --- | --- |
| R349H | disrupting interaction strength |
| Q362H | with no effect |
| M425I | with no effect |

Variants of: B4
Conditions: with tpp2_human TPP2, P29144

| Variant | effect of a mutation on the interaction |
| --- | --- |
| R556G | with no effect |
| L715S | with no effect |
| S703F | with no effect |
| R483Q | disrupting interaction strength |

Variants of: B4
Conditions: with actb_human ACTB

| Variant | effect of a mutation on the interaction |
| --- | --- |
| R556G | with no effect |
| L715S | with no effect |
| S703F | with no effect |
| R483Q | disrupting interaction strength |

Variants of: B4
Conditions: with actg_human ACTG1, P63261

| Variant | effect of a mutation on the interaction |
| --- | --- |
| R556G | with no effect |
| L715S | with no effect |
| S703F | with no effect |
| R483Q | disrupting interaction strength |

Variants of: B4
Conditions: with tnip1_human TNIP1, Q15025
tnip1_human TNIP1, Q15025, sequence (Q15025 whole entry): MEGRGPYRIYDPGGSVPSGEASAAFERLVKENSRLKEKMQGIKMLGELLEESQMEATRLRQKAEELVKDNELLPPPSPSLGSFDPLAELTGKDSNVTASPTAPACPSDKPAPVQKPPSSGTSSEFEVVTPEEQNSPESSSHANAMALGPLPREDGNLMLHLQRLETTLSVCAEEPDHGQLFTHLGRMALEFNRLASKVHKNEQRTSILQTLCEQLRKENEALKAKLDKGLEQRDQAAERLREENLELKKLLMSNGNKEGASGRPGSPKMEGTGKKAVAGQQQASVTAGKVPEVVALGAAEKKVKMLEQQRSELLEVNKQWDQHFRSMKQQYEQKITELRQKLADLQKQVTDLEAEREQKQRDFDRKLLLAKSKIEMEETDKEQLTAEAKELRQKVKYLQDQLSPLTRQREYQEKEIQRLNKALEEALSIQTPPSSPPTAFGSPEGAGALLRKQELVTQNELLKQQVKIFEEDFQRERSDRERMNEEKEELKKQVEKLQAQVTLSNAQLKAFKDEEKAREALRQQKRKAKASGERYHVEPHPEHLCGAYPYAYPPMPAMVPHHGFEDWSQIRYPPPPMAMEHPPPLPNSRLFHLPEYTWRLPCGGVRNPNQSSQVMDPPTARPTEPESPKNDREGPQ

| Variant | effect of a mutation on the interaction |
| --- | --- |
| L715S | with no effect |
| S703F | with no effect |
| R483Q | with no effect |

Variants of: B4
Conditions: with fund1_human FUNDC1, Q8IVP5
fund1_human FUNDC1, Q8IVP5, sequence (Q8IVP5 whole entry): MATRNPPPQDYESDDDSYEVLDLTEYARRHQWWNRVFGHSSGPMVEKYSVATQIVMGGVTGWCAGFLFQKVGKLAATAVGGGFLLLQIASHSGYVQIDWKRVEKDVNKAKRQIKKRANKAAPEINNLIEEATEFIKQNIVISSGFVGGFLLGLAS

| Variant | effect of a mutation on the interaction |
| --- | --- |
| Q685K | disrupting interaction strength |

Variants of: B4
Conditions: with tri41_human TRIM41, Q8WV44

| Variant | effect of a mutation on the interaction |
| --- | --- |
| Q685K | with no effect |

Variants of: B4
Conditions: with CCDC102B

| Variant | effect of a mutation on the interaction |
| --- | --- |
| Q685K | with no effect |
